Experimental findings from patent US20050191342A1 are described below.

The assay concerns the target CD20 on Daudi target cells (human) (UniProt P11836). In words: cell-based or functional assay.
UniProt P11836, sequence (P11836 whole entry): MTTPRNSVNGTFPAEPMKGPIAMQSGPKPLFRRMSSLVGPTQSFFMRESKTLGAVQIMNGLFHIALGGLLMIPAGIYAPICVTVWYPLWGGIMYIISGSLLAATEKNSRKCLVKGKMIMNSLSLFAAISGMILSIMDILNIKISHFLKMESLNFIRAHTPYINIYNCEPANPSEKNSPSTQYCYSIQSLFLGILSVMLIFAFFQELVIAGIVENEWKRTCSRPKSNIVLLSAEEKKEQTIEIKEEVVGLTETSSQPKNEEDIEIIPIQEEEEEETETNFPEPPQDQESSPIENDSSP

In turn, Rituxan™ (antibody) had an ADCC, Cr release from Daudi target cells of 10 to 15%.
